IntAct's records for PubMed 20190753

B1: Vacuolar protein sorting-associated protein 33B (Homo sapiens), Q9H267 (parent)
chain: MAFPHRPDAPELPDFSMLKRLARDQLIYLLEQLPGKKDLFIEADLMSPLDRIANVSILKQHEVDKLYKVENKPALSSNEQLCFLVRPRIKNMRYIASLVNADKLAGRTRKYKVIFSPQKFYACEMVLEEEGIYGDVSCDEWAFSLLPLDVDLLSMELPEFFRDYFLEGDQRWINTVAQALHLLSTLYGPFPNCYGIGRCAKMAYELWRNLEEEEDGETKGRRPEIGHIFLLDRDVDFVTALCSQVVYEGLVDDTFRIKCGSVDFGPEVTSSDKSLKVLLNAEDKVFNEIRNEHFSNVFGFLSQKARNLQAQYDRRRGMDIKQMKNFVSQELKGLKQEHRLLSLHIGACESIMKKKTKQDFQELIKTEHALLEGFNIRESTSYIEEHIDRQVSPIESLRLMCLLSITENGLIPKDYRSLKTQYLQSYGPEHLLTFSNLRRAGLLTEQAPGDTLTAVESKVSKLVTDKAAGKITDAFSSLAKRSNFRAISKKLNLIPRVDGEYDLKVPRDMAYVFGGAYVPLSCRIIEQVLERRSWQGLDEVVRLLNCSDFAFTDMTKEDKASSESLRLILVVFLGGCTFSEISALRFLGREKGYRFIFLTTAVTNSARLMEAMSEVKA
partner: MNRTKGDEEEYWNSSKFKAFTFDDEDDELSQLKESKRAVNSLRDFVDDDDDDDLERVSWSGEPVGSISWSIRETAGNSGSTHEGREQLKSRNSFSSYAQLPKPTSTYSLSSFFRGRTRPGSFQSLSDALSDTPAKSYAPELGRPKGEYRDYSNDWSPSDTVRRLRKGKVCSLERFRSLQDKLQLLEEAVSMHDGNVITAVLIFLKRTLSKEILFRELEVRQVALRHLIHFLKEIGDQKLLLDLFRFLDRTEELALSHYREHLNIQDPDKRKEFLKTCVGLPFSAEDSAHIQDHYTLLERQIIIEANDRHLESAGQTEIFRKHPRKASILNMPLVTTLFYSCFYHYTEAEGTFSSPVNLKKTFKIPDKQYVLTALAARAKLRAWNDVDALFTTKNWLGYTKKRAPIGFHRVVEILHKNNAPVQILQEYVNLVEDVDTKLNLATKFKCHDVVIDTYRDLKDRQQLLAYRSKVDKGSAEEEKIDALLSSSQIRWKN

Variants of: B1
Conditions: with spe39_human VIPAS39, Q9H9C1

Variant	effect of a mutation on the interaction
L30P	decreasing interaction
